{"source": "patent US20210332109A1", "binders": {"B1": {"name": "Antibody 9 (antibody, V domains shown)", "VH": "EVQLEESGPELVKPGASVKIPCKASGYTFTDYNMDWVKQNHGKSLEWIGEINPENGGTIYNQTFKGKATLTVDKSSSTAYMELRSLTSEDTAVYYCARSPWFTYWGQGTLVTVSA", "VL": "DIVLTQTTASLSMAIGEIVTIRCITSTDIGDDMNWYQQKPGEPPKFLISEGNTLRPGVPSRFSSSGYGTDFVFTVENILSEDVADYYCLQSDNLPHVRLGDKVGNK"}}, "key": {"[1]": {"target": "the antibody (of the immunochromatographic analysis device used in Test Example 8)", "experiment": "competitive inhibition in the immunochromatographic sandwich on VZV gE recombinant protein, P2 added; row 0.5 ng/mL"}, "[2]": {"target": "the antibody (of the immunochromatographic analysis device used in Test Example 8)", "experiment": "competitive inhibition in the immunochromatographic sandwich on VZV gE recombinant protein, P2 added; row 5 ng/mL"}, "[3]": {"target": "the antibody (of the immunochromatographic analysis device used in Test Example 8)", "experiment": "competitive inhibition in the immunochromatographic sandwich on VZV gE recombinant protein, P1 added; row 0.5 ng/mL"}, "[4]": {"target": "the antibody (of the immunochromatographic analysis device used in Test Example 8)", "experiment": "competitive inhibition in the immunochromatographic sandwich on VZV gE recombinant protein, P1 added; row 5 ng/mL"}, "[5]": {"target": "VZV gE recombinant protein (CalBioreagents, Inc.) (varicella-zoster virus) (UniProt P09259)", "sequence (P09259 31-538 limits assumed)": "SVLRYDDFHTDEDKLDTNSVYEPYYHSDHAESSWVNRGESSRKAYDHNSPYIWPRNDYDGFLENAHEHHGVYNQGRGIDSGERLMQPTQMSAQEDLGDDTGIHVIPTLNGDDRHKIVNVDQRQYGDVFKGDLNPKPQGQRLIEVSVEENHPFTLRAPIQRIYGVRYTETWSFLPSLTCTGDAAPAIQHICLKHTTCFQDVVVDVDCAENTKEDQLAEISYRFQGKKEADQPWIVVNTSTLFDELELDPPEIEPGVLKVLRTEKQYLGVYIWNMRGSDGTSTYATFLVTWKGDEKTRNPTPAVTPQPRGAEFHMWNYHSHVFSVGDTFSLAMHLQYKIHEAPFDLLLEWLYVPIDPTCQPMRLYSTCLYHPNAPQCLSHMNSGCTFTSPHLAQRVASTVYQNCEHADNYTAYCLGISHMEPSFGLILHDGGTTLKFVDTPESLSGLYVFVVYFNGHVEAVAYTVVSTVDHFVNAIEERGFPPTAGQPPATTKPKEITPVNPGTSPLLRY", "experiment": "immunochromatographic sandwich; row antibody gold-labelled, Antibody 9 on the detection line"}, "[6]": {"target": "VZV gE recombinant protein (CalBioreagents, Inc.) (varicella-zoster virus) (UniProt P09259)", "experiment": "immunochromatographic sandwich; row antibody gold-labelled, Antibody 4 on the detection line"}, "[7]": {"target": "VZV gE recombinant protein (CalBioreagents, Inc.) (varicella-zoster virus) (UniProt P09259)", "experiment": "immunochromatographic sandwich; row antibody gold-labelled, Antibody 18 on the detection line"}, "[8]": {"target": "VZV gE recombinant protein (CalBioreagents, Inc.) (varicella-zoster virus) (UniProt P09259)", "experiment": "immunochromatographic sandwich; row antibody gold-labelled, Antibody 2 on the detection line"}, "[9]": {"target": "VZV gE recombinant protein (CalBioreagents, Inc.) (varicella-zoster virus) (UniProt P09259)", "experiment": "immunochromatographic sandwich; row antibody gold-labelled, Antibody 3 on the detection line"}, "[10]": {"target": "VZV gE recombinant protein (CalBioreagents, Inc.) (varicella-zoster virus) (UniProt P09259)", "experiment": "immunochromatographic sandwich; row antibody gold-labelled, Antibody 5 on the detection line"}, "[11]": {"target": "the antibody (of the immunochromatographic analysis device used in Test Example 8)", "experiment": "competitive inhibition in the immunochromatographic sandwich on VZV gE recombinant protein, P3 added; row 0.5 ng/mL"}, "[12]": {"target": "the antibody (of the immunochromatographic analysis device used in Test Example 8)", "experiment": "competitive inhibition in the immunochromatographic sandwich on VZV gE recombinant protein, P3 added; row 5 ng/mL"}, "[13]": {"target": "the antibody (of the immunochromatographic analysis device used in Test Example 8)", "experiment": "competitive inhibition in the immunochromatographic sandwich on VZV gE recombinant protein, P4 added; row 0.5 ng/mL"}, "[14]": {"target": "the antibody (of the immunochromatographic analysis device used in Test Example 8)", "experiment": "competitive inhibition in the immunochromatographic sandwich on VZV gE recombinant protein, P4 added; row 5 ng/mL"}}}
{"binder": "YYHSDHAESSWVNRGESSR", "values": [{"measurement": "color development intensity", "setting": "[1]", "result": 127, "unit": "mAbs"}, {"measurement": "color development intensity", "setting": "[2]", "result": 697, "unit": "mAbs"}]}
{"binder": "NSVYEPYYHSDHAESSWVNR", "values": [{"measurement": "color development intensity", "setting": "[3]", "result": 136, "unit": "mAbs"}, {"measurement": "color development intensity", "setting": "[4]", "result": 726, "unit": "mAbs"}]}
{"binder": "B1", "values": [{"measurement": "color development intensity", "setting": "[5]", "result": 29}, {"measurement": "color development intensity", "setting": "[6]", "result": 5}, {"measurement": "color development intensity", "setting": "[7]", "result": 218}, {"measurement": "color development intensity", "setting": "[8]", "result": 39}, {"measurement": "color development intensity", "setting": "[9]", "result": 53}, {"measurement": "color development intensity", "setting": "[10]", "result": 52}]}
{"binder": "SSWVNRGESSRKAYDHNSPY", "values": [{"measurement": "color development intensity", "setting": "[11]", "result": 128, "unit": "mAbs"}, {"measurement": "color development intensity", "setting": "[12]", "result": 677, "unit": "mAbs"}]}
{"binder": "ESSRKAYDHNSPYIWPRNDY", "values": [{"measurement": "color development intensity", "setting": "[13]", "result": 149, "unit": "mAbs"}, {"measurement": "color development intensity", "setting": "[14]", "result": 596, "unit": "mAbs"}]}
